T1: thiazide-sensitive sodium chloride cotransporter (NCC) (mouse (endogenous in mDCT15 cells and …, UniProt P59158 1-1002))
T1 construct: thiazide-sensitive sodium-chloride cotransporter (NCC), endogenous in mouse mDCT15 cells and mouse kidney cortex; Precipitated with an anti-NCC antibody coupled to resin (Pierce Co-Immunoprecipitation Kit); source: endogenous, mDCT15 whole cell lysate; endogenous, mouse kidney cortex homogenate
T1 sequence (looked up): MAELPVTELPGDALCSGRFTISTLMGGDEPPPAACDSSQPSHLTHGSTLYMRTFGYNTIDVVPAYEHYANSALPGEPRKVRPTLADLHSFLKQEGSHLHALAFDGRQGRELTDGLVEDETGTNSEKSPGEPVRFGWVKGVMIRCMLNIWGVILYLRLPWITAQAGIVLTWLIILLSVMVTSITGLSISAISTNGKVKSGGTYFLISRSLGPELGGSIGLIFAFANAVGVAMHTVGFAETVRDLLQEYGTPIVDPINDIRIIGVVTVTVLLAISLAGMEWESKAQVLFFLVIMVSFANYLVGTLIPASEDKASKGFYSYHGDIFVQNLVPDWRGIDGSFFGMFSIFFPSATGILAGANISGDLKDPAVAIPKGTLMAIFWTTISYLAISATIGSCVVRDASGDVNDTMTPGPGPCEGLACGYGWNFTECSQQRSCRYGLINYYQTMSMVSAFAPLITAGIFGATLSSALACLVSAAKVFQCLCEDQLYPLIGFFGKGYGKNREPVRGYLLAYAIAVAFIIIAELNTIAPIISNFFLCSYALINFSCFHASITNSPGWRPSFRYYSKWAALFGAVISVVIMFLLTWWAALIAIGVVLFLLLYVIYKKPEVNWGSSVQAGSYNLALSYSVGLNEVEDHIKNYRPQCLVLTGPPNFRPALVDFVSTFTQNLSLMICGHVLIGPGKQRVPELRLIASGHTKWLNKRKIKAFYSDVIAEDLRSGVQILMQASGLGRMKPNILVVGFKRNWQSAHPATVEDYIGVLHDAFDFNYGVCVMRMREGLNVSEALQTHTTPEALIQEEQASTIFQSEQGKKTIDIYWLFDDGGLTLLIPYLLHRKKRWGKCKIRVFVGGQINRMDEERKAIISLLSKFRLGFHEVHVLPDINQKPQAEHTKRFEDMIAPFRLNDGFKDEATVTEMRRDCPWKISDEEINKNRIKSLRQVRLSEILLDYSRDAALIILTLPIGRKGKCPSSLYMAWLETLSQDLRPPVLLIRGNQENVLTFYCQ

T2: NCC-pBIND (full-length NCC fused to the GAL4 DNA-binding domain) (UniProt P59158 1-1002)
T2 construct: source: COS-7, transiently transfected, mammalian two-hybrid fusion
T2 sequence (looked up): T1 sequence (looked up)

B1: epithelial sodium channel alpha subunit (αENaC) (natural protein, UniProt Q61180 1-699, looked up)
chain: MLDHTRAPELNLDLDLDVSNSPKGSMKGNNFKEQDLCPPLPMQGLGKGDKREEQALGPEPSEPRQPTEEEEALIEFHRSYRELFQFFCNNTTIHGAIRLVCSKHNRMKTAFWAVLWLCTFGMMYWQFALLFEEYFSYPVSLNINLNSDKLVFPAVTVCTLNPYRYTEIKEDLEELDRITEQTLFDLYKYNSSYTRQAGGRRRSTRDLRGALPHPLQRLRTPPPPNPARSARSASSSVRDNNPQVDRKDWKIGFQLCNQNKSDCFYQTYSSGVDAVREWYRFHYINILSRLPDTSPALEEEALGSFIFTCRFNQAPCNQANYSQFHHPMYGNCYTFNNKNNSNLWMSSMPGVNNGLSLTLRTEQNDFIPLLSTVTGARVMVHGQDEPAFMDDGGFNVRPGVETSISMRKEALDSLGGNYGDCTENGSDVPVKNLYPSKYTQQVCIHSCFQENMIKKCGCAYIFYPKPKGVEFCDYLKQSSWGYCYYKLQAAFSLDSLGCFSKCRKPCSVTNYKLSAGYSRWPSVKSQDWIFEMLSLQNNYTINNKRNGVAKLNIFFKELNYKTNSESPSVTMVSLLSNLGSQWSLWFGSSVLSVVEMAELIFDLLVITLIMLLHRFRSRYWSPGRGARGAREVASTPASSFPSRFCPHPTSPPPSLPQQGTTPPLALTAPPPAYATLGPSASPLDSAVPGSSACAPAMAL
notes: epithelial sodium channel (ENaC) alpha subunit, endogenous in mouse mDCT15 cells and mouse kidney cortex; Detected by immunoblot with an αENaC antibody in the NCC precipitate; source: endogenous, mDCT15 whole cell lysate; endogenous, mouse kidney cortex homogenate
B2: α-pACT (full-length αENaC fused to the VP16 activation domain) (natural protein, UniProt Q61180 1-699, looked up)
chain: B1 chain
notes: epithelial sodium channel (ENaC) alpha subunit, full-length clone in pACT; source: COS-7, transiently transfected, mammalian two-hybrid fusion
B3: γ-pACT (full-length γENaC fused to the VP16 activation domain) (natural protein, UniProt Q9WU39 1-655, looked up)
chain: MAPGEKIKAKIKKNLPVRGPQAPTIKDLMHWYCLNTNTHGCRRIVVSRGRLRRLLWIAFTLTAVALIIWQCALLVFSFYTVSVSIKVHFQKLDFPAVTICNINPYKYSAVSDLLTDLDSETKQALLSLYGVKDVLDSTPRKRREAGSMRSTWEGTPPRFLNLIPLLVFNENEKGKARDFFTGRKRKISGKIIHKASNVMHVHESKKLVGFQLCSNDTSDCATYTFSSGINAIQEWYKLHYMNIMAQVPLEKKINMSYSAEELLVTCFFDGMSCDARNFTLFHHPMYGNCYTFNNRENATILSTSMGGSEYGLQVILYINEDEYNPFLVSSTGAKVLVHQQNEYPFIEDVGTEIETAMSTSIGMHLTESFKLSEPYSQCTEDGSDVPVTNIYNAAYSLQICLYSCFQTKMVEKCGCAQYSQPLPPAANYCNYQQHPNWMYCYYQLYQAFVREELGCQSVCKQSCSFKEWTLTTSLAQWPSEASEKWLLNVLTWDQSQQINKKLNKTDLAKLLIFYKDLNQRSIMESPANSIEMLLSNFGGQLGLWMSCSVVCVIEIIEVFFIDFFSIIARRQWQKAKDWWARRRTPPSTETPSSQQGQDNPALDTDDDLPTFTSAMRLPPAPEAPVPGTPPPRYNTLRLDSAFSSQLTDTQLTNEF
notes: epithelial sodium channel (ENaC) gamma subunit, full-length clone in pACT; source: COS-7, transiently transfected, mammalian two-hybrid fusion

How the values were obtained:
Details in all cases: partners not purified
[1] = target: T1, thiazide-sensitive sodium chloride …; assay: co-IP; mouse kidney cortex homogenates (RIPA buffer), anti-NCC antibody coupled to resin (Pierce Co-Immunoprecipitation Kit), eluate blotted for αENaC; mice on high salt (4%) chow treated with vehicle (25% DMSO in saline) or Aldo (4 ug/day, 10 d)
[2] = target: T1, thiazide-sensitive sodium chloride …; assay: co-IP; mDCT15 whole cell lysates (about 800 ug protein per column), anti-NCC antibody coupled to resin (Pierce Co-Immunoprecipitation Kit), eluate blotted for αENaC; cells treated with vehicle (EtOH), Aldo (100 nM, 48 hrs), Aldo + SGK1 inhibitor (GSK690394, 6 uM, 60 min) or SGK1 inhibitor alone
[3] = target: T2, NCC-pBIND (full-length NCC fused to the …); assay: two-hybrid; Checkmate mammalian two-hybrid in transiently transfected COS-7 cells; NCC-pBIND (GAL4 DNA-binding domain) with α- or γ-pACT (VP16) and pG5luc; firefly luciferase normalized to Renilla, fold change of negative control (empty pBIND + pACT); with or without co-transfected SGK1 or WNK4; read 48 hours after transfection

Binder	fold change of αENaC co-precipitated with NCC, Aldo against vehicle [1] [fold change/vehicle]	fold change of αENaC co-precipitated with NCC, Aldo + SGK1 inhibitor against vehicle [2] [fold change/vehicle]	fold change of αENaC co-precipitated with NCC, Aldo against vehicle [2] [fold change/vehicle]	fold change of αENaC relative to NCC in the CoIP fractions, Aldo against vehicle [2] [fold change/vehicle]	two-hybrid luciferase signal, fold of negative control [3]	two-hybrid luciferase signal, fold of negative control, with SGK1 co-transfected [3]
B1	3.07	1.55	2.05	1.55	–	–
B2	–	–	–	–	7.74 fold change of negative control	14.7 fold change of negative control
B3	–	–	–	–	4.33 fold change of negative control	–
